B1: EphA2 L223R/L254R/V255R triple mutant, full-length, tagged at the C-terminus with mTurquoise or eYFP (receptor, UniProt P29317 24-976, looked up)
chain: AQGKEVVLLDFAAAGGELGWLTHPYGKGWDLMQNIMNDMPIYMYSVCNVMSGDQDNWLRTNWVYRGEAERIFIELKFTVRDCNSFPGGASSCKETFNLYYAESDLDYGTNFQKRLFTKIDTIAPDEITVSSDFEARHVKLNVEERSVGPLTRKGFYLAFQDIGACVALLSVRVYYKKCPELLQGLAHFPETIAGSDAPSRATVAGTCVDHAVVPPGGEEPRMHCAVDGEWRRPIGQCLCQAGYEKVEDACQACSPGFFKFEASESPCLECPEHTLPSPEGATSCECEEGFFRAPQDPASMPCTRPPSAPHYLTAVGMGAKVELRWTPPQDSGGREDIVYSVTCEQCWPESGECGPCEASVRYSEPPHGLTRTSVTVSDLEPHMNYTFTVEARNGVSGLVTSRSFRTASVSINQTEPPKVRLEGRSTTSLSVSWSIPPPQQSRVWKYEVTYRKKGDSNSYNVRRTEGFSVTLDDLAPDTTYLVQVQALTQEGQGAGSKVHEFQTLSPEGSGNLAVIGGVAVGVVLLLVLAGVGFFIHRRRKNQRARQSPEDVYFSKSEQLKPLKTYVDPHTYEDPNQAVLKFTTEIHPSCVTRQKVIGAGEFGEVYKGMLKTSSGKKEVPVAIKTLKAGYTEKQRVDFLGEAGIMGQFSHHNIIRLEGVISKYKPMMIITEYMENGALDKFLREKDGEFSVLQLVGMLRGIAAGMKYLANMNYVHRDLAARNILVNSNLVCKVSDFGLSRVLEDDPEATYTTSGGKIPIRWTAPEAISYRKFTSASDVWSFGIVMWEVMTYGERPYWELSNHEVMKAINDGFRLPTPMDCPSAIYQLMMQCWQQERARRPKFADIVSILDKLIRAPDSLKTLADFDPRVSIRLPSTSGSEGVPFRTVSEWLESIKMQQYTEHFMAAGYTAIEKVVQMTNDDIKRIGVRLPGHQKRIAYSLLGLKDQVNTVGIPI

How the values were obtained:
[1] = target: m-ephrinA1 (Homo sapiens) (UniProt P20827); conditions: cited from earlier work
m-ephrinA1 (Homo sapiens), sequence (P20827 19-182): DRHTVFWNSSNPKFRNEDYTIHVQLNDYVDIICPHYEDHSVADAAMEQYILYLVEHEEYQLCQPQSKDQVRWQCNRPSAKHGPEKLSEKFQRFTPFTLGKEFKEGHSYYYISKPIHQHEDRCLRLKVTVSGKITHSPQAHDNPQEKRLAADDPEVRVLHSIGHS

[2] = target: YSA peptide (synthetic construct); conditions: cited from earlier work
[3] = target: the molecule itself; assay: FRET or BRET; FSI-FRET (two-photon spectral imaging) between EphA2-mTurq and EphA2-eYFP in the plasma membrane of live HEK293T cells in hypo-osmotic medium; no ligand; dimer to monomers, two-dimensional constants in receptors per μm^2

Row | Molecule | Kd [1] [nM] | Kd [2] [nM] | stoichiometry N [3]
1 | EphA2 (from UniProt P29317) | 25 | 200 | –
2 | B1 | – | – | 2

— PMC6123813 (Communications biology, 2018)
